Assay results as given in patent publication US20200087400A1 (EUREKA THERAPEUTICS, published 2020).

Tests used:
[1] = target: T1, HLA-A*02:01 on T2 cells with no peptide loaded (human); assay: FACS; scFv phage on T2 cells without peptide
T1 construct: TAP-deficient T2 cells, no peptide loaded from outside; also called T2 cells without peptide loading
Description: (§1) Individual phage clones from enriched phage display panning pools against PSA146/HLA-A*02:01 complex were incubated in the coated plates. Binding of the phage clones was detected by HRP-conjugated anti-M13 antibodies and developed using HRP substrate. The absorbance was read at 450 nm. […] Then, unique antibody clones were identified through DNA sequencing of ELISA-positive clones. […] T2 cells loaded with different peptides and β2M were first stained with purified scFv phage clones, followed by staining with a mouse anti-M13 mAb, and finally R-PE conjugated horse anti-mouse IgG from Vector Labs. Each step of the staining was performed for between 30-60 minutes on ice and the cells were washed twice between stainings. All 16 clones recognized PSA146-loaded T2 cells specifically. FIG. 3 provides examples of PSA146/HLA-A*02:01 specific phage clone binding to peptide-loaded T2 cells through FACS.

[2] = target: T2, PSA 146-154 peptide/HLA-A*02:01 complex on the cell surface (human); assay: FACS; scFv phage on PSA146-loaded live T2 cells
T2 construct: also called PSA146/HLA-A*02:01; PSA146-loaded T2 cells
Description: as §1

[3] = target: T3, control peptide A2E-1/HLA-A*02:01 complex on T2 cells (member of the P19 mixture) (human); assay: FACS; scFv phage on T2 cells loaded with the P19 mixture
T3 construct: Loaded on T2 cells as part of the mixture of 19 control peptides
Description: as §1

[4] = target: T4, control peptide A2E-2/HLA-A*02:01 complex on T2 cells (member of the P19 mixture) (human); assay: as above
T4 construct: Loaded on T2 cells as part of the mixture of 19 control peptides
Description: as §1

[5] = target: T5, control peptide A2E-3/HLA-A*02:01 complex on T2 cells (member of the P19 mixture) (human); assay: as above
T5 construct: Loaded on T2 cells as part of the mixture of 19 control peptides
Description: as §1

[6] = target: T6, control peptide A2E-4/HLA-A*02:01 complex on T2 cells (member of the P19 mixture) (human); assay: as above
T6 construct: Loaded on T2 cells as part of the mixture of 19 control peptides
Description: as §1

[7] = target: T7, control peptide A2E-5/HLA-A*02:01 complex on T2 cells (member of the P19 mixture) (human); assay: as above
T7 construct: Loaded on T2 cells as part of the mixture of 19 control peptides
Description: as §1

[8] = target: T8, control peptide A2E-6/HLA-A*02:01 complex on T2 cells (member of the P19 mixture) (human); assay: as above
T8 construct: Loaded on T2 cells as part of the mixture of 19 control peptides
Description: as §1

[9] = target: T9, control peptide A2E-7/HLA-A*02:01 complex on T2 cells (member of the P19 mixture) (human); assay: as above
T9 construct: Loaded on T2 cells as part of the mixture of 19 control peptides
Description: as §1

[10] = target: T10, control peptide A2E-8/HLA-A*02:01 complex on T2 cells (member of the P19 mixture) (human); assay: as above
T10 construct: Loaded on T2 cells as part of the mixture of 19 control peptides
Description: as §1

[11] = target: T11, control peptide A2E-9/HLA-A*02:01 complex on T2 cells (member of the P19 mixture) (human); assay: as above
T11 construct: Loaded on T2 cells as part of the mixture of 19 control peptides
Description: as §1

[12] = target: T12, control peptide A2E-10/HLA-A*02:01 complex on T2 cells (member of the P19 mixture) (human); assay: as above
T12 construct: Loaded on T2 cells as part of the mixture of 19 control peptides
Description: as §1

[13] = target: T13, control peptide A2E-11/HLA-A*02:01 complex on T2 cells (member of the P19 mixture) (human); assay: as above
T13 construct: Loaded on T2 cells as part of the mixture of 19 control peptides
Description: as §1

[14] = target: T14, control peptide A2E-13/HLA-A*02:01 complex on T2 cells (member of the P19 mixture) (human); assay: as above
T14 construct: Loaded on T2 cells as part of the mixture of 19 control peptides
Description: as §1

[15] = target: T15, control peptide A2E-14/HLA-A*02:01 complex on T2 cells (member of the P19 mixture) (human); assay: as above
T15 construct: Loaded on T2 cells as part of the mixture of 19 control peptides
Description: as §1

[16] = target: T16, control peptide A2E-15/HLA-A*02:01 complex on T2 cells (member of the P19 mixture) (human); assay: as above
T16 construct: Loaded on T2 cells as part of the mixture of 19 control peptides
Description: as §1

[17] = target: T17, control peptide A2E-16/HLA-A*02:01 complex on T2 cells (member of the P19 mixture) (human); assay: as above
T17 construct: Loaded on T2 cells as part of the mixture of 19 control peptides
Description: as §1

[18] = target: T18, control peptide A2E-17/HLA-A*02:01 complex on T2 cells (member of the P19 mixture) (human); assay: as above
T18 construct: Loaded on T2 cells as part of the mixture of 19 control peptides
Description: as §1

[19] = target: T19, control peptide A2E-19/HLA-A*02:01 complex on T2 cells (member of the P19 mixture) (human); assay: as above
T19 construct: Loaded on T2 cells as part of the mixture of 19 control peptides
Description: as §1

[20] = target: T20, control peptide A2E-21/HLA-A*02:01 complex on T2 cells (member of the P19 mixture) (human); assay: as above
T20 construct: Loaded on T2 cells as part of the mixture of 19 control peptides
Description: as §1

[21] = target: T21, control peptide A2E-23/HLA-A*02:01 complex on T2 cells (member of the P19 mixture) (human); assay: as above
T21 construct: Loaded on T2 cells as part of the mixture of 19 control peptides
Description: as §1

B1: PSA146/HLA-A*02:01-specific scFv phage clone #8 (scFv, V domains shown)
VH: QVQLQQWGAGLLKPSETLSLTCAVKGGSFSDYYWSWIRQPPGKGLEWIGEINHSGGTNYNPSLKSRVTISVDTSKNQFSLKLLSVTAADTAVYYCARYNEYGSGYDKWGQGTLVTVSS
VL: QSVLTQPPSVSAAPGQKVTISCSGSSYNIGNNYVSWYQQLPGTAPKLLIYDNNKRPSGIPDRFSGSKSGTSATLGITGLQTGDEAEYYCGTWESSLSAYVFGTGTKVTVLG
binding result [1]: no binding
binding result [2]: binds
binding result [3]: no binding
binding result [4]: no binding
binding result [5]: no binding
binding result [6]: no binding
binding result [7]: no binding
binding result [8]: no binding
binding result [9]: no binding
binding result [10]: no binding
binding result [11]: no binding
binding result [12]: no binding
binding result [13]: no binding
binding result [14]: no binding
binding result [15]: no binding
binding result [16]: no binding
binding result [17]: no binding
binding result [18]: no binding
binding result [19]: no binding
binding result [20]: no binding
binding result [21]: no binding
